From article PMC7067600 (Nature structural & molecular biology, 2019)

T1: FANCI (isolated) (Gallus gallus, UniProt B0I564 1-1338)
T1 sequence: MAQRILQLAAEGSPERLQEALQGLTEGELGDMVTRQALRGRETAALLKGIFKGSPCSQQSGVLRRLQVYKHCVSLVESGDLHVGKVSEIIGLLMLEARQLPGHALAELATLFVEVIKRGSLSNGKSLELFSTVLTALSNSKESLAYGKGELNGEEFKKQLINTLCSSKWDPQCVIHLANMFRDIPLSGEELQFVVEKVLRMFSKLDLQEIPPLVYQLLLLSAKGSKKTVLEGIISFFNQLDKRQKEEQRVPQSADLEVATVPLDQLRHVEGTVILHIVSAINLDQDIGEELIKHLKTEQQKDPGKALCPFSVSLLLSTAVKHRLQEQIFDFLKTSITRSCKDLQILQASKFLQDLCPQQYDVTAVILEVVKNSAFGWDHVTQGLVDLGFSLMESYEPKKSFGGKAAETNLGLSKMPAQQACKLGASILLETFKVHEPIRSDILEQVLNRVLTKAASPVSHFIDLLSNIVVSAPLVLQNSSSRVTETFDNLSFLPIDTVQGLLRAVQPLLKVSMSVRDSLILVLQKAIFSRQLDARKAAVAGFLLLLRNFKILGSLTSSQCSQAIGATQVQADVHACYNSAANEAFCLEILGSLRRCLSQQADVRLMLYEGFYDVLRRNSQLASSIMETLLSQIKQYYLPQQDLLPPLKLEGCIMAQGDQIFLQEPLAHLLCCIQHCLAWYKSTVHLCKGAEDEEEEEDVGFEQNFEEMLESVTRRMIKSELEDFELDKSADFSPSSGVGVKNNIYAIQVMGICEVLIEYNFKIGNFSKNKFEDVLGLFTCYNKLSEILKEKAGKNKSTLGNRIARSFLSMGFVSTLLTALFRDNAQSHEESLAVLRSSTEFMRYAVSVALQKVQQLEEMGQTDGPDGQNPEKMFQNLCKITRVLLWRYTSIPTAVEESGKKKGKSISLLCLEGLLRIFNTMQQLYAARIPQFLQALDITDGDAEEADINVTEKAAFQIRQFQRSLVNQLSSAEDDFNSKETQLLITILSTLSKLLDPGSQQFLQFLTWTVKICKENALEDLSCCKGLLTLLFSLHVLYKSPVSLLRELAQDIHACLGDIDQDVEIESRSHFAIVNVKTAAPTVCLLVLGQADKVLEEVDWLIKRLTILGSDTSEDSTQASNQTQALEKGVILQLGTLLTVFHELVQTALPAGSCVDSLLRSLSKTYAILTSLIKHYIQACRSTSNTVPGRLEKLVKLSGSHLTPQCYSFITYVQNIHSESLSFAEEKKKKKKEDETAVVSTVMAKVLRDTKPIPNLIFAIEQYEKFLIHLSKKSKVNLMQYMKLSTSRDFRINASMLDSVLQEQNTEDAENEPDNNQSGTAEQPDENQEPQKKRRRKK

B1: StrepII-tagged Gallus gallus FANCD2 (expressed alone) (natural protein, UniProt Q68Y81 1-1439, looked up)
chain: MVSKRKLSKIDAAEESSKTDLQSRCPETKRSRISDKRAPSQGGLENEGVFEELLRTSGIILKVGEGQNEIAVDQTAFQKKLRVALEKHPSYPGVVNEFISGLESHIKDRSQFKNCLLPCTPARTEGSRTLVHSYCESLIKLLLGIKILQPAVVTLLLEKIPEFFFDVVGTFGTNFPRLIVNQFKWLDGLLDSQDLVKKLMQMLSVSPVPIQHDIITSLPEILEDSQQNEVARELSCLLKQGRRLTVPILDALSRLDLDAELLAEVRQSAMTIVPSVKLEDLPVVIKFILHNVKAADAVEVISDLRKSLDLSSCVLPLQLLGSQRKLKSQAQASSSMSQVTTSQNCVKLLFDVIKQAVRFQKDVSEAWIKAIENSTSVSDHKVLDLIVLLLIHSTNSKNRKQTEKVLRSKIRLGCMPEQLMQNAFQNHSMVIKDFFPSILSLAQTFLHSAHPAVVSFGSCMYKQAFAVFDSYCQQEVVCALVTHVCSGNETELDISLDVLTDLVILHPSLLLRYATFVKTILDSMQKLNPCQIRKLFYILSTLAFSQRQEGSYIQDDMHMVIRKWLSSSVPNHKQMGIIGAVTMMGSVALKRNEADGGLLERPELSIECDGQLSTLLDLVGFCCEQTPEVLALYYDELANLIEKQKGNLDLQLLDKFGKSLVEDFPNDFVVDLSPTVDGSFLFPVKSLYNLDEDETQGAIAINLLPLVSQSEPGRVADEMSNSRKRVVSPICLSPCFRLLRLYTGEQNNGSLEEIDALLGCPLYLTDLEVEGKLDSLSKQEREFLCSLLFYALNWFREVVNAFCQQQDAEMKGKVLTRLQNITELQNVLGKCLAATPGYVPPPATFDSEAPEGVPSINAGGPVRKKNGKKRKSDSSKACSAERTQADESSDGNQPDTELSELEKSATEKETGNPLAQLQSYRPYFRELDLEVFSVLHCGLLTKSILDTEMHTEASEVVQLGPAELCFLLDDMCWKLEHVLTPGSTRRVPFLKERGNKDVGFSHLCQRSPKEVAVCVVKLLKPLCNHMENMHNYFQTVIPNQGVVDESGLNIQEYQLMSSCYHQLLLAFRLLFAWSGFSQHENSNLLRSALQVLADRLKPGETEFLPLEELISESFQYLLNFQASIPSFQCAFILTQVLMAISEKPMTGWKREKMASLAKQFLCQSWMKPGGDREKGSHFNSALHTLLCVYLEHTDNILKAIEEISSVGVPELINSAKDGCSSTYPTLSRQTFPVFFRVMMAQLESSVKSIPAGKPSDSGEVQLEKLLKWNIAVRNFHILINLVKVFDSRPVLSICLKYGRLFVEAFLKLAMPLLDHSFKKHRDDVQSLLKTLQLSTRQLHHMCGHSKIHQDLGLTNHVPLLKKSLEQFVYRVKAMLAFNHCQEAFWVGVLKNRDLQGEEILSQASAAPEEDSAEGSEEDTADSAAEEPDGTDSDSGGAGR
B2: 19 bp dsDNA (dsDNA)
DNA 1: ATCGATGTCTCTAGACAGC
DNA 2: GCTGTCTAGAGACATCGAT
B3: 39 bp dsDNA (dsDNA)
DNA 1: ATCGATGTCTCTAGACAGCTGCTCAGGATTGATCTGTAA
DNA 2: TTACAGATCAATCCTGAGCAGCTGTCTAGAGACATCGAT
B4: His-tagged Gallus gallus FANCI (expressed alone) (natural protein, UniProt B0I564 1-1338, looked up)
chain: T1 sequence
B5: 14 bp dsDNA (dsDNA)
DNA 1: ATCGATGTCTCTAG
DNA 2: CTAGAGACATCGAT

What was measured:
[1] = biological target: the molecule itself; experiment: SEC
[2] = biological target: FANCD2 (in co-expressed D2-I);FANCI (in co-expressed D2-I) (Gallus gallus;Gallus gallus, UniProt Q68Y81;B0I564 1-1439;1-1338, |); experiment: EMSA
[3] = biological target: T1, FANCI (isolated); experiment: EMSA
[4] = biological target: FANCD2 (isolated) (Gallus gallus, UniProt Q68Y81 1-1439); experiment: EMSA
[5] = biological target: B1; experiment: pull-down

**Q.** For B1, which “stoichiometry N” value [1] is on record?
**A.** 2

**Q.** Does B2 bind [2]?
**A.** binds

**Q.** Does B3 bind [3]?
**A.** binds

**Q.** Does B3 bind [4]?
**A.** no binding

**Q.** With B4 as the binder, how does the “stoichiometry N” value [5] read?
**A.** ~1 FANCI:FANCD2

**Q.** Does B5 bind [2]?
**A.** no binding
